Key:
Hep-2 = assay: Tumor cell viability, Alamar Blue; type: cell-based, human; conditions: Hep-2, Malignant, Laryngeal squamous cell carcinoma; 48 hours of incubation
Description: (§1) All human tumor cells used in the present application were obtained from the American Type Culture Collection (ATCC, Manassas, VA, USA) and cultured in RPMI 1640 medium (Gibco) supplemented with 10% (v/v) fetal bovine serum and gentamicin (50 µg/ml) at 37 °C in a 5% CO2 atmosphere. The effects of the lipopeptide and the CIGB-300 peptide on tumor cell viability were assessed using Alamar Blue reagent (Life Technologies, Carlsbad, CA, USA). Cells were seeded in flatbottom 96-well plates (2×10^5 cells/mL, 200 µL/well) and incubated for 24 hours, followed by treatment with the lipopeptide and the CIGB-300 peptide serially diluted from 100 to 3.12 µM at a 1:2 ratio. After 48 hours of incubation, 10% (v/v) Alamar Blue was added, and the cell suspension was incubated for an additional 4 hours. Fluorescence intensity in the microplates was measured, and IC50 values were calculated using CalcuSyn software (version 2.1) (Biosoft, Cambridge, UK).

SW948 = assay: Tumor cell viability, Alamar Blue; type: cell-based, human; conditions: SW948, Malignant, Colon adenocarcinoma; 48 hours of incubation
Description: as §1

NCI-H82 = assay: Tumor cell viability, Alamar Blue; type: cell-based, human; conditions: NCI-H82, Malignant, SCLC; 48 hours of incubation
Description: as §1

SK-MES1 = assay: Tumor cell viability, Alamar Blue; type: cell-based, human; conditions: SK-MES1, Malignant, NSCLC; 48 hours of incubation
Description: as §1

NCI-H522 = assay: Tumor cell viability, Alamar Blue; type: cell-based, human; conditions: NCI-H522, Malignant, NSCLC; 48 hours of incubation
Description: as §1

NCI-H226 = assay: Tumor cell viability, Alamar Blue; type: cell-based, human; conditions: NCI-H226, Malignant, NSCLC; 48 hours of incubation
Description: as §1

A549 = assay: Tumor cell viability, Alamar Blue; type: cell-based, human; conditions: A549, Malignant, NSCLC; 48 hours of incubation
Description: as §1

PC3 = assay: Tumor cell viability, Alamar Blue; type: cell-based, human; conditions: PC3, Malignant, Prostate cancer; 48 hours of incubation
Description: as §1

NCI-H125 = assay: Tumor cell viability, Alamar Blue; type: cell-based, human; conditions: NCI-H125, Malignant, NSCLC; 48 hours of incubation
Description: as §1

A431 = assay: Tumor cell viability, Alamar Blue; type: cell-based, human; conditions: A431, Malignant, Vulvar epidermoid carcinoma; 48 hours of incubation
Description: as §1

HepG2 = assay: Tumor cell viability, Alamar Blue; type: cell-based, human; conditions: HepG2, Malignant, Hepatocellular carcinoma; 48 hours of incubation
Description: as §1

U87 = assay: Tumor cell viability, Alamar Blue; type: cell-based, human; conditions: U87, Malignant, Glioblastoma; 48 hours of incubation
Description: as §1

NCI-H460 = assay: Tumor cell viability, Alamar Blue; type: cell-based, human; conditions: NCI-H460, Malignant, NSCLC; 48 hours of incubation
Description: as §1

RR-805 = assay: Cell viability, Alamar Blue (benign cells); type: cell-based; conditions: RR-805, Benign, Renal primary fibroblasts; 48 hours of incubation
MRC-5 = assay: Cell viability, Alamar Blue (benign cells); type: cell-based; conditions: MRC-5, Benign, Lung fibroblasts; 48 hours of incubation
recombinant CK2α = assay: cell-based or functional assay
A549 cells = assay: ROS levels (DHE reagent) and cell viability by flow cytometry; type: cell-based, human; conditions: for DHE reagent (Geometric mean) Mean: ROS level
Description: In addition to inducing higher levels of apoptosis compared to the CIGB-300 peptide, the lipopeptide also triggered greater reactive oxygen species (ROS) production in A549 cells after 2 hours of incubation with the antioxidant N-acetyl-L-cysteine (NAC), as analyzed by flow cytometry (Table 2). The elevated ROS levels were correlated with the stronger inhibitory effect of the lipopeptide on cell viability. Table 2: ROS levels induced by the lipopeptide and the CIGB-300 peptide in A549 cells

Surfeit locus protein 2 = Surfeit locus protein 2 (Homo sapiens, UniProt Q15527)
Surfeit locus protein 2, sequence (Q15527 whole entry): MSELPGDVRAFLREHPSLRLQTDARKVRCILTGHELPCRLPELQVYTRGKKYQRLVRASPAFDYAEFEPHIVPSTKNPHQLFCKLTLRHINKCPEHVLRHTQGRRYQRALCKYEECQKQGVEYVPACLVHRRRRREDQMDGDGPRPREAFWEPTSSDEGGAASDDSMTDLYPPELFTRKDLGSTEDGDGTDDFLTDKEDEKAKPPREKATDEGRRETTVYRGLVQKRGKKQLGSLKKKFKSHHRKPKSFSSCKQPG

[1] = target: Collagen alpha-1(V) chain (Homo sapiens, UniProt P20908)
[2] = target: Serine/arginine-rich splicing factor 8 (Homo sapiens) (UniProt Q9BRL6)
Serine/arginine-rich splicing factor 8 (Homo sapiens), sequence (Q9BRL6 2-282 limits assumed): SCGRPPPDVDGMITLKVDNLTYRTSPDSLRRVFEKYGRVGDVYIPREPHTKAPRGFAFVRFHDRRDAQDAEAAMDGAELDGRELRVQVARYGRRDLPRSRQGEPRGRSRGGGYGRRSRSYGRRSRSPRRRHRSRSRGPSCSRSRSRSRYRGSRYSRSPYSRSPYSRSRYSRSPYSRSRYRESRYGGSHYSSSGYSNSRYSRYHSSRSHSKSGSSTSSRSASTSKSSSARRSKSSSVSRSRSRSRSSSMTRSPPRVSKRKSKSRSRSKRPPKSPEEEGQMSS

[3] = target: Replication protein A 32 kDa subunit (Homo sapiens, UniProt P15927)
Replication protein A 32 kDa subunit, sequence (P15927 whole entry): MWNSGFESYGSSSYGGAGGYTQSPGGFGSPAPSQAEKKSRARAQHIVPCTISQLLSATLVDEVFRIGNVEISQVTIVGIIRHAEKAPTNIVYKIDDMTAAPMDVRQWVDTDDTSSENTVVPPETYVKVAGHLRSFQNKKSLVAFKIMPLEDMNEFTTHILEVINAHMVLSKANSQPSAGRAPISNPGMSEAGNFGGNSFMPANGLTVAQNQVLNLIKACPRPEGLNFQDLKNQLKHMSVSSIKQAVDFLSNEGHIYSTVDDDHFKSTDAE

Cullin-1 = Cullin-1 (Homo sapiens, UniProt Q13616)
Cullin-1, sequence (Q13616 whole entry): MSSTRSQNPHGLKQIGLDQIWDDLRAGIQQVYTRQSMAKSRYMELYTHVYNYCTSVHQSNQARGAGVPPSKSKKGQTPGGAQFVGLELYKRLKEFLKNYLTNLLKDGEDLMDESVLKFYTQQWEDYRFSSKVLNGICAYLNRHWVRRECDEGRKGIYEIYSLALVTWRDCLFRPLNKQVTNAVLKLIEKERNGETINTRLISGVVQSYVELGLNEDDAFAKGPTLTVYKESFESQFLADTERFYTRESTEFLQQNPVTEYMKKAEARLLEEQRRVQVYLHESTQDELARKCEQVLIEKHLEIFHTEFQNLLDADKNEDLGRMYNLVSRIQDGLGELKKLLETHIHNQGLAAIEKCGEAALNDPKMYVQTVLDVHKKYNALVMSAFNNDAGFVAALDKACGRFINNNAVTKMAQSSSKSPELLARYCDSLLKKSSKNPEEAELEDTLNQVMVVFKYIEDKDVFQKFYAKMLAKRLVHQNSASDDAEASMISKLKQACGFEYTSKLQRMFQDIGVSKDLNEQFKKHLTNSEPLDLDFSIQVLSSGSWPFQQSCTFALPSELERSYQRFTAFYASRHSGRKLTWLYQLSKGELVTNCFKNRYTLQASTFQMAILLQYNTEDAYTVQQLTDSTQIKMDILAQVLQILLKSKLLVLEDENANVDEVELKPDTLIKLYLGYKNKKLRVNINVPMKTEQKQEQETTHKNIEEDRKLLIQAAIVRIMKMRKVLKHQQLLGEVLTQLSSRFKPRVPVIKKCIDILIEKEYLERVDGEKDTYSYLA

[4] = target: Gem-associated protein 2 (Homo sapiens) (UniProt O14893)
Gem-associated protein 2 (Homo sapiens), sequence (O14893 whole entry): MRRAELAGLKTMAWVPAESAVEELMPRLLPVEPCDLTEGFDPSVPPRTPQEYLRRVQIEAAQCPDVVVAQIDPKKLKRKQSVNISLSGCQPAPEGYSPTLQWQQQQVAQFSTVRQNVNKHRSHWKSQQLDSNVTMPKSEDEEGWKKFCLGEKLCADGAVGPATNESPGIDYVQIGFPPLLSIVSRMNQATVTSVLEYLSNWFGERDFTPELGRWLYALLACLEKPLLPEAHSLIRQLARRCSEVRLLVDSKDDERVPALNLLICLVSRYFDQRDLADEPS

[5] = target: Arginyl-tRNA-protein transferase 1 (Homo sapiens, UniProt O95260)
Arginyl-tRNA-protein transferase 1, sequence (O95260 whole entry): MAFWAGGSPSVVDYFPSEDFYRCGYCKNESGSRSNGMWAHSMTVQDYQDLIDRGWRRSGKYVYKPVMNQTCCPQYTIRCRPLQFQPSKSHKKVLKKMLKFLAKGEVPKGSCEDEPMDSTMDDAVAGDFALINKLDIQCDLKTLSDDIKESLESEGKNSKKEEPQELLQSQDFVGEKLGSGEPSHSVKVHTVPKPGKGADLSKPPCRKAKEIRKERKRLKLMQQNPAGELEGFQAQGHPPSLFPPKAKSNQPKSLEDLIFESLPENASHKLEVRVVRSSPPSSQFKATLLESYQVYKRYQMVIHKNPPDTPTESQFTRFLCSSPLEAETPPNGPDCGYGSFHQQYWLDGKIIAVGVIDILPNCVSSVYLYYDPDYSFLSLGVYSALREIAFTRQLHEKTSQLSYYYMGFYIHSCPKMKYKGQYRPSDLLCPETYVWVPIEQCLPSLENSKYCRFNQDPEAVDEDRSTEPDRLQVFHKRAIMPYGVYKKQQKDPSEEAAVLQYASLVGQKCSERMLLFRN

[6] = target: Cleavage stimulation subunit 3 (Homo sapiens) (UniProt Q12996)
Cleavage stimulation subunit 3 (Homo sapiens), sequence (Q12996 2-717 limits assumed): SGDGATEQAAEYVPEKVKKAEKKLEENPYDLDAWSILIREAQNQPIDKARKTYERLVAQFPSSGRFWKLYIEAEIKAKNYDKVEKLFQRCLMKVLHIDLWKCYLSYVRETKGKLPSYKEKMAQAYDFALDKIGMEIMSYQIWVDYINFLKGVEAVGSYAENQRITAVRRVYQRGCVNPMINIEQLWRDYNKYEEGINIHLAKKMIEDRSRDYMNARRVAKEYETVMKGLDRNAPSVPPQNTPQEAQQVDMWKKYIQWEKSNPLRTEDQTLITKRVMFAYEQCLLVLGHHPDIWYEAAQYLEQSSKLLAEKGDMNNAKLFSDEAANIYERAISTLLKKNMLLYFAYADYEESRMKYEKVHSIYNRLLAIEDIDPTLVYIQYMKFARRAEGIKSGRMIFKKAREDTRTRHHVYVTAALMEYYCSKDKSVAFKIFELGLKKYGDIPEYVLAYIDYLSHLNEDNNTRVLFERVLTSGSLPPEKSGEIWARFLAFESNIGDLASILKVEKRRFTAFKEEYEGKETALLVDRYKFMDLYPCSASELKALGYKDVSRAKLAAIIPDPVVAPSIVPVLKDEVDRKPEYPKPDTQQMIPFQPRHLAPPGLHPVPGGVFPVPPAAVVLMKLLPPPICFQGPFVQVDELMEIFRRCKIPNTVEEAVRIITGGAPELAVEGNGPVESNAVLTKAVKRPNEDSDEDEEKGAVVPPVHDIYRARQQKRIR

[7] = target: U6 snRNA-associated Sm-like protein LSm8 (Homo sapiens) (UniProt O95777)
U6 snRNA-associated Sm-like protein LSm8 (Homo sapiens), sequence (O95777 2-96 limits assumed): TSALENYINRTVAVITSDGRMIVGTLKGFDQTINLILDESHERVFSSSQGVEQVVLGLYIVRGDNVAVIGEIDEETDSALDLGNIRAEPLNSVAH

Xaa-Pro aminopeptidase 1 = Xaa-Pro aminopeptidase 1 (Homo sapiens, UniProt Q9NQW7)
Xaa-Pro aminopeptidase 1, sequence (Q9NQW7 2-623 limits assumed): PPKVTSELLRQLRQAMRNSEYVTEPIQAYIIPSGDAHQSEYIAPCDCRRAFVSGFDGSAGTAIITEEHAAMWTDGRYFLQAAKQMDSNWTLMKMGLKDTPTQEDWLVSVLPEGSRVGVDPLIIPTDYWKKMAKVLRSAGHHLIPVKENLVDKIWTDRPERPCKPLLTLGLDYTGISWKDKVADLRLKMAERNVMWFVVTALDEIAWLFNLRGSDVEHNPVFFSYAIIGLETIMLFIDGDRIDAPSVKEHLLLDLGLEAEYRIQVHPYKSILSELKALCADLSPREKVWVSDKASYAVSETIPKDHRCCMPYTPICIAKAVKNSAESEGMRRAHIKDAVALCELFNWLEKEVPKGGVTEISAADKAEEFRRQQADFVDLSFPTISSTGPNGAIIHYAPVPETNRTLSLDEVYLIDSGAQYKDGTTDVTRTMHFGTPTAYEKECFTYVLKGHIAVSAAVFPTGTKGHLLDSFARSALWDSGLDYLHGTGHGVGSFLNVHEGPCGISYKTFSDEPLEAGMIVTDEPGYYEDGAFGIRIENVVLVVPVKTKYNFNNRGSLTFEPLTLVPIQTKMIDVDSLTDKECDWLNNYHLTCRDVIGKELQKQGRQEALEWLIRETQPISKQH

Histone H2A type 2-B = Histone H2A type 2-B (Homo sapiens, UniProt Q8IUE6)
[8] = target: High mobility group protein HMGI-C (Homo sapiens) (UniProt P52926)
High mobility group protein HMGI-C (Homo sapiens), sequence (P52926 2-109 limits assumed): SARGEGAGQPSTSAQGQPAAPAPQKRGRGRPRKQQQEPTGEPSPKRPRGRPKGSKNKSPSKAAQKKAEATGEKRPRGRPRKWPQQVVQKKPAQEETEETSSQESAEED

[9] = target: Calponin-3 (Homo sapiens) (UniProt Q15417)
Calponin-3 (Homo sapiens), sequence (Q15417 whole entry): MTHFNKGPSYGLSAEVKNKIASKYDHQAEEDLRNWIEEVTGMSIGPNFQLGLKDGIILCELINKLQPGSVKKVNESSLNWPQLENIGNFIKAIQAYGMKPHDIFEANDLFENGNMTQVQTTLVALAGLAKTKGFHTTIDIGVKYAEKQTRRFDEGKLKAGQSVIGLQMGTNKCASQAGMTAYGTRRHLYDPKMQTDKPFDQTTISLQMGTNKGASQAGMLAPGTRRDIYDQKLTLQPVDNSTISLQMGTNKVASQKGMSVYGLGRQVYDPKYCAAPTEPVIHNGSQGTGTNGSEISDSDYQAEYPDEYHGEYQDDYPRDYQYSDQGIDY

[10] = With NAC, 2 hours of incubation

`CSCC[C@@H]1NC(=O)[C@H](Cc2c[nH]c3ccccc23)NC(=O)[C@@H](NC(=O)CCNC(=O)[C@H](CCC(N)=O)NC(=O)[C@@H]2CCCN2C(=O)[C@@H]2CCCN2C(=O)[C@H](CCCNC(=N)N)NC(=O)[C@H](CCCNC(=N)N)NC(=O)[C@H](CCCNC(=N)N)NC(=O)[C@H](CCC(N)=O)NC(=O)[C@H](CCCNC(=N)N)NC(=O)[C@H](CCCNC(=N)N)NC(=O)[C@H](CCCCN)NC(=O)[C@H](CCCCN)NC(=O)[C@H](CCCNC(=N)N)NC(=O)CN)CSSC[C@@H](C(N)=O)NC(=O)[C@H]([C@@H](C)O)NC(=O)CNC(=O)[C@H](CC(C)C)NC(=O)[C@H](Cc2c[nH]cn2)NC(=O)[C@H](CCCNC(=N)N)NC(=O)[C@@H]2CCCN2C(=O)[C@H](CO)NC1=O` [The CIGB-300 peptide, reference compound] was tested, and the IC50 (Hep-2) was 30.7 ± 2 µM, the IC50 (SW948) was 143.1 ± 1 µM and the IC50 (NCI-H82) was 39.7 ± 11 µM. The IC50 (SK-MES1) was 150 ± 7 µM, the IC50 (NCI-H522) was 70 µM and the IC50 (NCI-H226) was 70.8 µM. For the same molecule, the IC50 (A549) was 180 ± 30 µM, the IC50 (PC3) was 170 ± 5 µM and the IC50 (NCI-H125) was 76.3 ± 2 µM. It also gave an IC50 (A431) of 90.7 ± 4 µM, an IC50 (HepG2) of 128 ± 44 µM and an IC50 (U87) of 154 ± 15 µM. The IC50 (NCI-H460) was 30 ± 9 µM, the IC50 (RR-805) was 230 ± 6 µM and the IC50 (MRC-5) was 198 ± 8 µM.

CIGB-300 peptide was tested, and the CK2 enzyme activity (CPM x10^3) at 0.00 µM peptide (baseline without peptide) (recombinant CK2α) was 170000 CPM, the CK2 enzyme activity (CPM x10^3) at 0.097 µM peptide (recombinant CK2α) was 171000 CPM and the CK2 enzyme activity (CPM x10^3) at 0.195 µM peptide (recombinant CK2α) was 169000 CPM. The CK2 enzyme activity (CPM x10^3) at 0.39 µM peptide (recombinant CK2α) was 162000 CPM, the CK2 enzyme activity (CPM x10^3) at 0.781 µM peptide (recombinant CK2α) was 158000 CPM and the CK2 enzyme activity (CPM x10^3) at 1.56 µM peptide (recombinant CK2α) was 109000 CPM. For the same molecule, the CK2 enzyme activity (CPM x10^3) at 3.125 µM peptide (recombinant CK2α) was 92000 CPM, the CK2 enzyme activity (CPM x10^3) at 6.25 µM peptide (recombinant CK2α) was 61000 CPM and the CK2 enzyme activity (CPM x10^3) at 12.5 µM peptide (recombinant CK2α) was 31000 CPM. For the same molecule, the CK2 enzyme activity (CPM x10^3) at 25 µM peptide (recombinant CK2α) was 19000 CPM and the CK2 enzyme activity (CPM x10^3) at 50 µM peptide (recombinant CK2α) was 4000 CPM.

`OO` [H2O2] was tested, and the “Cell viability (%) Mean” value (A549 cells; [10]) was 94.9%, the “DHE reagent (Geometric mean) Mean” value (A549 cells; [10]) was 4175 and the “Cell viability (%) Mean” value (A549 cells; Without NAC) was 94.0%. The “DHE reagent (Geometric mean) Mean” value (A549 cells; Without NAC) was 4335.

“synthetic anti-cancer lipopeptide (decanoyl-CIGB-300)” gave an Abundance ratio of lipopeptide/CIGB-300 (Surfeit locus protein 2) of 2.05, an Abundance ratio of lipopeptide/CIGB-300 [1] of 2.97 and an Abundance ratio of lipopeptide/CIGB-300 [2] of 2.86. The Abundance ratio of lipopeptide/CIGB-300 [3] was 2.1, the Abundance ratio of lipopeptide/CIGB-300 (Cullin-1) was 2.3 and the Abundance ratio of lipopeptide/CIGB-300 [4] was 2.62. The Abundance ratio of lipopeptide/CIGB-300 [5] was 2.01, the Abundance ratio of lipopeptide/CIGB-300 [6] was 5.12 and the Abundance ratio of lipopeptide/CIGB-300 [7] was 3.31. It also gave an Abundance ratio of lipopeptide/CIGB-300 (Xaa-Pro aminopeptidase 1) of 2.26, an Abundance ratio of lipopeptide/CIGB-300 (Histone H2A type 2-B) of 2.19 and an Abundance ratio of lipopeptide/CIGB-300 [8] of 3.88. It also gave an Abundance ratio of lipopeptide/CIGB-300 [9] of 2.37.
